Residue numbers refer to the chain shown, from its start. Numbered stars: 1 amine (or outer) side, 2 acyl side, 3 side chain; on linkers, the order of the positions; unused ones are H or OH. Square brackets hold non-standard residues; d marks the D form. Side chains are listed from the residue outwards. Ends that are not written are not given here. * marks the point of attachment. C18 diacid = O=C(O)CCCCCCCCCCCCCCCCC(=O)*; γGlu = O=C(O)[C@H](CCC(=O)[*:2])N[*:1]; AEEA = NCCOCCOCC(=O)O; Aib = CC(C)(N)C(=O)O
B1: Example 300 (peptide)
peptide: YXEGTFTSDYSIXLDKKAQXAFIEYLIEGGPSSG
modifications: Aib2, αMeL13, (2-[2-(2-Amino-ethoxy)-ethoxy]-acetyl)2-(γ-Glu)-CO-(CH2)16-CO2H on K17, Aib20, C-terminal NH2
B2: Example 301 (peptide)
peptide: B1 peptide with F6X, X13L
modifications: Aib2, αMeF6, (2-[2-(2-Amino-ethoxy)-ethoxy]-acetyl)2-(γ-Glu)-CO-(CH2)16-CO2H on K17, Aib20, C-terminal NH2
B3: Example 303 (peptide)
peptide: B1 peptide with K16E
modifications: Aib2, αMeL13, (2-[2-(2-Amino-ethoxy)-ethoxy]-acetyl)2-(γ-Glu)-CO-(CH2)16-CO2H on K17, Aib20, C-terminal NH2
B4: Example 309 (peptide)
peptide: B1 peptide with F6X, X13L, E28A
modifications: Aib2, αMeF6, (2-[2-(2-Amino-ethoxy)-ethoxy]-acetyl)2-(γ-Glu)-CO-(CH2)16-CO2H on K17, Aib20, C-terminal NH2
B5: Example 311 (peptide)
peptide: B1 peptide with F6X, X13L, K16E
modifications: Aib2, αMeF(2F)6, (2-[2-(2-Amino-ethoxy)-ethoxy]-acetyl)2-(γ-Glu)-CO-(CH2)16-CO2H on K17, Aib20, C-terminal NH2
B6: Example 310 (peptide)
peptide: B1 peptide with F6X, X13L, A21E, E28A
modifications: Aib2, αMeF6, (2-[2-(2-Amino-ethoxy)-ethoxy]-acetyl)2-(γ-Glu)-CO-(CH2)16-CO2H on K17, Aib20, C-terminal NH2
B7: Example 314 (peptide)
peptide: B1 peptide with F6X, X13L, A21E, E28A
modifications: Aib2, αMeF(2F)6, (2-[2-(2-Amino-ethoxy)-ethoxy]-acetyl)2-(γ-Glu)-CO-(CH2)16-CO2H on K17, Aib20, C-terminal NH2
B8: Example 313 (peptide)
peptide: B1 peptide with F6X, X13L, E28A
modifications: Aib2, αMeF(2F)6, (2-[2-(2-Amino-ethoxy)-ethoxy]-acetyl)2-(γ-Glu)-CO-(CH2)16-CO2H on K17, Aib20, C-terminal NH2
B9: Example 304 (peptide)
peptide: B1 peptide with A21E
modifications: Aib2, αMeL13, (2-[2-(2-Amino-ethoxy)-ethoxy]-acetyl)2-(γ-Glu)-CO-(CH2)16-CO2H on K17, Aib20, C-terminal NH2
B10: Example 308 (peptide)
peptide: B1 peptide with F6X, X13L, A21E
modifications: Aib2, αMeF6, (2-[2-(2-Amino-ethoxy)-ethoxy]-acetyl)2-(γ-Glu)-CO-(CH2)16-CO2H on K17, Aib20, C-terminal NH2
B11: Example 306 (peptide)
peptide: B1 peptide with A21E, E28A
modifications: Aib2, αMeL13, (2-[2-(2-Amino-ethoxy)-ethoxy]-acetyl)2-(γ-Glu)-CO-(CH2)16-CO2H on K17, Aib20, C-terminal NH2
B12: Example 312 (peptide)
peptide: B1 peptide with F6X, X13L, A21E
modifications: Aib2, αMeF(2F)6, (2-[2-(2-Amino-ethoxy)-ethoxy]-acetyl)2-(γ-Glu)-CO-(CH2)16-CO2H on K17, Aib20, C-terminal NH2
B13: Example 307 (peptide)
peptide: B1 peptide with F6X, X13L, K16E
modifications: Aib2, αMeF6, (2-[2-(2-Amino-ethoxy)-ethoxy]-acetyl)2-(γ-Glu)-CO-(CH2)16-CO2H on K17, Aib20, C-terminal NH2
B14: Example 302 (peptide)
peptide: B1 peptide with F6X, X13L
modifications: Aib2, αMeF(2F)6, (2-[2-(2-Amino-ethoxy)-ethoxy]-acetyl)2-(γ-Glu)-CO-(CH2)16-CO2H on K17, Aib20, C-terminal NH2
B15: Example 298 (peptide)
peptide: Y[Aib]EGTFTSDYSILLDKK([AEEA-AEEA-γGlu-C18 diacid])AQ[Aib]AFVEYLIEGGPSSG-NH2
modifications: N-terminus assumed
SMILES: CC[C@H](C)[C@H](NC(=O)[C@H](CC(C)C)NC(=O)[C@H](Cc1ccc(O)cc1)NC(=O)[C@H](CCC(=O)O)NC(=O)[C@@H](NC(=O)[C@H](Cc1ccccc1)NC(=O)[C@H](C)NC(=O)C(C)(C)NC(=O)[C@H](CCC(N)=O)NC(=O)[C@H](C)NC(=O)[C@H](CCCCNC(=O)COCCOCCNC(=O)COCCOCCNC(=O)CC[C@H](NC(=O)CCCCCCCCCCCCCCCCC(=O)O)C(=O)O)NC(=O)[C@H](CCCCN)NC(=O)[C@H](CC(=O)O)NC(=O)[C@H](CC(C)C)NC(=O)[C@H](CC(C)C)NC(=O)[C@@H](NC(=O)[C@H](CO)NC(=O)[C@H](Cc1ccc(O)cc1)NC(=O)[C@H](CC(=O)O)NC(=O)[C@H](CO)NC(=O)[C@@H](NC(=O)[C@H](Cc1ccccc1)NC(=O)[C@@H](NC(=O)CNC(=O)[C@H](CCC(=O)O)NC(=O)C(C)(C)NC(=O)[C@@H](N)Cc1ccc(O)cc1)[C@@H](C)O)[C@@H](C)O)[C@@H](C)CC)C(C)C)C(=O)N[C@@H](CCC(=O)O)C(=O)NCC(=O)NCC(=O)N1CCC[C@H]1C(=O)N[C@@H](CO)C(=O)N[C@@H](CO)C(=O)NCC(N)=O
B16: Example 315 (peptide)
peptide: YXEGTFTSDYSILLDKKAQXAFIEYLIEGGPSSGAPPPS
modifications: Aib2, (2-[2-(2-Amino-ethoxy)-ethoxy]-acetyl)2-(γ-Glu)-CO-(CH2)16-CO2H on K17, Aib20, C-terminal NH2
B17: Example 296 (peptide)
peptide: Y[Aib]EGTFTSDYSILLDKK([AEEA-AEEA-γGlu-C18 diacid])AQKAFIEYLIEGGPSSG-NH2
modifications: N-terminus assumed
SMILES: CC[C@H](C)[C@H](NC(=O)[C@H](CC(C)C)NC(=O)[C@H](Cc1ccc(O)cc1)NC(=O)[C@H](CCC(=O)O)NC(=O)[C@@H](NC(=O)[C@H](Cc1ccccc1)NC(=O)[C@H](C)NC(=O)[C@H](CCCCN)NC(=O)[C@H](CCC(N)=O)NC(=O)[C@H](C)NC(=O)[C@H](CCCCNC(=O)COCCOCCNC(=O)COCCOCCNC(=O)CC[C@H](NC(=O)CCCCCCCCCCCCCCCCC(=O)O)C(=O)O)NC(=O)[C@H](CCCCN)NC(=O)[C@H](CC(=O)O)NC(=O)[C@H](CC(C)C)NC(=O)[C@H](CC(C)C)NC(=O)[C@@H](NC(=O)[C@H](CO)NC(=O)[C@H](Cc1ccc(O)cc1)NC(=O)[C@H](CC(=O)O)NC(=O)[C@H](CO)NC(=O)[C@@H](NC(=O)[C@H](Cc1ccccc1)NC(=O)[C@@H](NC(=O)CNC(=O)[C@H](CCC(=O)O)NC(=O)C(C)(C)NC(=O)[C@@H](N)Cc1ccc(O)cc1)[C@@H](C)O)[C@@H](C)O)[C@@H](C)CC)[C@@H](C)CC)C(=O)N[C@@H](CCC(=O)O)C(=O)NCC(=O)NCC(=O)N1CCC[C@H]1C(=O)N[C@@H](CO)C(=O)N[C@@H](CO)C(=O)NCC(N)=O
B18: Example 299 (peptide)
peptide: Y[Aib]EGTFTSDYSILLDKK([AEEA-AEEA-γGlu-C18 diacid])AQ[Aib]AFLEYLIEGGPSSG-NH2
modifications: N-terminus assumed
SMILES: CC[C@H](C)[C@H](NC(=O)[C@H](CC(C)C)NC(=O)[C@H](Cc1ccc(O)cc1)NC(=O)[C@H](CCC(=O)O)NC(=O)[C@H](CC(C)C)NC(=O)[C@H](Cc1ccccc1)NC(=O)[C@H](C)NC(=O)C(C)(C)NC(=O)[C@H](CCC(N)=O)NC(=O)[C@H](C)NC(=O)[C@H](CCCCNC(=O)COCCOCCNC(=O)COCCOCCNC(=O)CC[C@H](NC(=O)CCCCCCCCCCCCCCCCC(=O)O)C(=O)O)NC(=O)[C@H](CCCCN)NC(=O)[C@H](CC(=O)O)NC(=O)[C@H](CC(C)C)NC(=O)[C@H](CC(C)C)NC(=O)[C@@H](NC(=O)[C@H](CO)NC(=O)[C@H](Cc1ccc(O)cc1)NC(=O)[C@H](CC(=O)O)NC(=O)[C@H](CO)NC(=O)[C@@H](NC(=O)[C@H](Cc1ccccc1)NC(=O)[C@@H](NC(=O)CNC(=O)[C@H](CCC(=O)O)NC(=O)C(C)(C)NC(=O)[C@@H](N)Cc1ccc(O)cc1)[C@@H](C)O)[C@@H](C)O)[C@@H](C)CC)C(=O)N[C@@H](CCC(=O)O)C(=O)NCC(=O)NCC(=O)N1CCC[C@H]1C(=O)N[C@@H](CO)C(=O)N[C@@H](CO)C(=O)NCC(N)=O
B19: Example 297 (peptide)
peptide: Y[Aib]EGTFTSDYSILLDKK([AEEA-AEEA-γGlu-C18 diacid])AQ[Aib]EFIEYLIAGG-NH2
modifications: N-terminus assumed
SMILES: CC[C@H](C)[C@H](NC(=O)[C@H](CC(C)C)NC(=O)[C@H](Cc1ccc(O)cc1)NC(=O)[C@H](CCC(=O)O)NC(=O)[C@@H](NC(=O)[C@H](Cc1ccccc1)NC(=O)[C@H](CCC(=O)O)NC(=O)C(C)(C)NC(=O)[C@H](CCC(N)=O)NC(=O)[C@H](C)NC(=O)[C@H](CCCCNC(=O)COCCOCCNC(=O)COCCOCCNC(=O)CC[C@H](NC(=O)CCCCCCCCCCCCCCCCC(=O)O)C(=O)O)NC(=O)[C@H](CCCCN)NC(=O)[C@H](CC(=O)O)NC(=O)[C@H](CC(C)C)NC(=O)[C@H](CC(C)C)NC(=O)[C@@H](NC(=O)[C@H](CO)NC(=O)[C@H](Cc1ccc(O)cc1)NC(=O)[C@H](CC(=O)O)NC(=O)[C@H](CO)NC(=O)[C@@H](NC(=O)[C@H](Cc1ccccc1)NC(=O)[C@@H](NC(=O)CNC(=O)[C@H](CCC(=O)O)NC(=O)C(C)(C)NC(=O)[C@@H](N)Cc1ccc(O)cc1)[C@@H](C)O)[C@@H](C)O)[C@@H](C)CC)[C@@H](C)CC)C(=O)N[C@@H](C)C(=O)NCC(=O)NCC(N)=O

target: T1, human gastric inhibitory peptide receptor (GIPR) (human, UniProt P48546 22-466); assay: cell-based or functional assay
T1 sequence (looked up): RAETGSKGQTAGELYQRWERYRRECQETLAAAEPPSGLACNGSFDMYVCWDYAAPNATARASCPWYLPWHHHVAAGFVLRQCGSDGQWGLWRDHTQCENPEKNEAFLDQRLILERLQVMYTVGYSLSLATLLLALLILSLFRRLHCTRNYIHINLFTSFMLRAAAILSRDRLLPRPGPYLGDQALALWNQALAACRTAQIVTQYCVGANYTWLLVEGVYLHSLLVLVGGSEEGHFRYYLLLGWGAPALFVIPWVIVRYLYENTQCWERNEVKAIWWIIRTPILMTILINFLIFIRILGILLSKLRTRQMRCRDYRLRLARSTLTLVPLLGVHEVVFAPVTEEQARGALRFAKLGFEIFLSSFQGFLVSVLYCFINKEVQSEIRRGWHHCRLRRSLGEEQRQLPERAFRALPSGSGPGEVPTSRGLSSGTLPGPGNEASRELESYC

Binder | hGIPR cAMP EC50 ratio | hGIPR cAMP Rel EC50 [nM]
B1 | 5.38 | 0.0234
B2 | 4.11 | 0.0346
B3 | 4.2 | 0.0254
B4 | 1.64 | 0.0389
B5 | 3.5 | 0.0334
B6 | 5.56 | 0.0176
B7 | 2.81 | 0.029
B8 | 2.87 | 0.0233
B9 | 2.68 | 0.0296
B10 | 4.06 | 0.0262
B11 | 3.97 | 0.0191
B12 | 4.76 | 0.0207
B13 | 2.48 | 0.0285
B14 | 3.78 | 0.0308
B15 | 2.87 | 0.043
B16 | – | 0.0408
B17 | 0.564 | 0.198
B18 | 0.146 | 0.932
B19 | 3 | 0.0451

target: human GLP-1 receptor (GLP-1R) (human, UniProt P43220 24-463); assay: cell-based or functional assay

Binder | hGLP1R cAMP EC50 ratio | hGLP1R cAMP Rel EC50 [nM]
B1 | 0.636 | 0.0867
B2 | 1.61 | 0.0441
B3 | 0.602 | 0.104
B4 | 1.27 | 0.033
B5 | 1.04 | 0.0393
B6 | 1.43 | 0.0283
B7 | 1.48 | 0.029
B8 | 0.867 | 0.0388
B9 | 0.481 | 0.191
B10 | 1.45 | 0.0392
B11 | 0.912 | 0.0711
B12 | 1.53 | 0.0262
B13 | 1.29 | 0.0437
B14 | 1.96 | 0.0275
B15 | 0.507 | 0.0957
B16 | – | 0.0651
B17 | 0.82 | 0.0867
B18 | 0.0244 | 2.54
B19 | 0.445 | 0.111

Source: patent US20220048967A1 (published 2022)
